Reference: patent US20040014055A1

Key:
[1] = biological target: HER1/2 VA (Homo sapiens (Human)) (UniProt P00533)
[2] = biological target: chimera EGF-R/ERBB2 (HER 1/2) (Homo sapiens (Human)) (UniProt P00533)

basolateral localisation of the receptor on MDCK transfectants (biotinylation of the cell surface, autoradiography) (% basolateral) [1]: 53
basolateral localisation of the receptor on MDCK transfectants (biotinylation of the cell surface, autoradiography) (% basolateral) [2]: 83
Substance: Erbin of the MDCK cells
